The values below come from publication PMC3510498.

Test [1] addresses TTERecR_(1-166) C-terminal deletion mutant (Thermoanaerobacter tengcongensis MB4) (UniProt Q8RDI4). Briefly: SEC; Superdex-200, 0.5 ml/min, 50 mM Tris-HCl pH 7.5, 300 mM NaCl, 200 µg/ml, absorbance at 280 nm. For orientation: SEC sorts molecules by how far they enter the pores of the column.
Test [2] deals with Thermoanaerobacter tengcongensis RecO (Thermoanaerobacter tengcongensis MB4) (UniProt Q8RB48). The test is described as follows: SPR; Biacore3000, 25°C; TTERecO amine-coupled to CM5 chip (4900 RU); TTERecR and mutants injected (0.0125-4 µM), 20 mM HEPES pH 7.4, 200 mM NaCl, 0.005% Tween 20; 1:1 Langmuir model; apparent KD. On the technique in general: Surface plasmon resonance follows binding to a sensor surface in real time, without labels.

The target in test [3] is TTERecR_(1-180) C-terminal deletion mutant (Thermoanaerobacter tengcongensis MB4) (UniProt Q8RDI4). The test is described as follows: SEC; Superdex-200, 0.5 ml/min, 50 mM Tris-HCl pH 7.5, 300 mM NaCl, 200 µg/ml, absorbance at 280 nm.
Test [4] deals with TTERecR_(16-196) N-terminal deletion mutant (Thermoanaerobacter tengcongensis MB4) (UniProt Q8RDI4). The test is described as above.
Test [5] concerns the target Thermoanaerobacter tengcongensis RecO (Thermoanaerobacter tengcongensis MB4) (UniProt Q8RB48). The test is described as follows: SEC + AUC; SEC: Superdex-200, 0.5 ml/min, 50 mM Tris-HCl pH 7.5, 300 mM NaCl, 200 µg/ml; AUC: 20°C, 1 mg/ml in 5 mM Tris-HCl pH 7.5, 50 mM NaCl, 60 000 rpm (TTERecR, TTERecO) or 55 000 rpm (TTERecOR complex), SEDFIT.
Test [6] concerns the target Thermoanaerobacter tengcongensis RecR, full-length (Thermoanaerobacter tengcongensis MB4) (UniProt Q8RDI4). The test is described as above.

What is called stoichiometry N is a count of units in the complex or per binding partner. Take “TTERecR_(1-166) C-terminal deletion mutant (from UniProt Q8RDI4 1-166) (domain or fragment)”: the stoichiometry N in test [1] was 2. Besides, the Kd in test [2] is 359 nM.
Turning to “TTERecR_(1-180) C-terminal deletion mutant (from UniProt Q8RDI4 1-180) (domain or fragment)”, in test [3], the stoichiometry N is 2. For the same substance, the Kd in test [2] was 1480 nM.
In test [4], “TTERecR_(16-196) N-terminal deletion mutant (from UniProt Q8RDI4 16-196) (domain or fragment)” showed a stoichiometry N of 2.
As to “Thermoanaerobacter tengcongensis RecR, full-length (from UniProt Q8RDI4 1-199) (natural protein)”, in test [2], the Kd worked out at 186 nM. For the same substance, in test [5], the stoichiometry N (RecR per RecO) was 2. Further, in test [6], the stoichiometry N is 2.
